Test results published in patent USRE41461E1, “Purification, composition and specificity of Heparinase I, II, and III from Flavobacterium heparinum” (Massachusetts Institute of Technology, priority 1992, dated 2010).
Where two headings read alike, the source gives them in different places.

B1: Heparin lyase II: heparin lyase II (heparinase II, no EC number) purified to homogeneity from Flavobacterium heparinum (protein, UniProt C6XZB6 26-772, looked up)
Heparin and heparin-sulfate …: QTKADVVWKDVDGVSMPIPPKTHPRLYLREQQVPDLKNRMNDPKLKKVWADMIKMQEDWKPADIPEVKDFRFYFNQKGLTVRVELMALNYLMTKDPKVGREAITSIIDTLETATFKPAGDISRGIGLFMVTGAIVYDWCYDQLKPEEKTRFVKAFVRLAKMLECGYPPVKDKSIVGHASEWMIMRDLLSVGIAIYDEFPEMYNLAAGRFFKEHLVARNWFYPSHNYHQGMSYLNVRFTNDLFALWILDRMGAGNVFNPGQQFILYDAIYKRRPDGQILAGGDVDYSRKKPKYYTMPALLAGSYYKDEYLNYEFLKDPNVEPHCKLFEFLWRDTQLGSRKPDDLPLSRYSGSPFGWMIARTGWGPESVIAEMKVNEYSFLNHQHQDAGAFQIYYKGPLAIDAGSYTGSSGGYNSPHNKNFFKRTIAHNSLLIYDPKETFSSSGYGGSDHTDFAANDGGQRLPGKGWIAPRDLKEMLAGDFRTGKILAQGFGPDNQTPDYTYLKGDITAAYSAKVKEVKRSFLFLNLKDAKVPAAMIVFDKVVASNPDFKKFWLLHSIEQPEIKGNQITIKRTKNGDSGMLVNTALLPDAANSNITSIGGKGKDFWVFGTNYTNDPKPGTDEALERGEWRVEITPKKAAAEDYYLNVIQIADNTQQKLHEVKRIDGDKVVGVQLADRIVTFSKTSETVDRPFGFSVVGKGTFKFVMTDLLPGTWQVLKDGKILYPALSAKGDDGALYFEGTEGTYRFLR
B2: Heparin lyase III: heparin lyase III (heparitinase EC 4.2.2.8) purified to homogeneity from Flavobacterium heparinum (protein, UniProt Q59289 25-659, looked up)
Heparin-sulfate lyase: QSSSITRKDFDHINLEYSGLEKVNKAVAAGNYDDAAKALLAYYREKSKAREPDFSNAEKPADIRQPIDKVTREMADKALVHQFQPHKGYGYFDYGKDINWQMWPVKDNEVRWQLHRVKWWQAMALVYHATGDEKYAREWVYQYSDWARKNPLGLSQDNDKFVWRPLEVSDRVQSLPPTFSLFVNSPAFTPAFLMEFLNSYHQQADYLSTHYAEQGNHRLFEAQRNLFAGVSFPEFKDSPRWRQTGISVLNTEIKKQVYADGMQFELSPIYHVAAIDIFLKAYGSAKRVNLEKEFPQSYVQTVENMIMALISISLPDYNTPMFGDSWITDKNFRMAQFASWARVFPANQAIKYFATDGKQGKAPNFLSKALSNAGFYTFRSGWDKNATVMVLKASPPGEFHAQPDNGTFELFIKGRNFTPDAGVFVYSGDEAIMKLRNWYRQTRIHSTLTLDNQNMVITKARQNKWETGNNLDVLTYTNPSYPNLDHQRSVLFINKKYFLVIDRAIGEATGNLGVHWQLKEDSNPVFDKTKNRVYTTYRDGNNLMIQSLNADRTSLNEEEGKVSYVYNKELKRPAFVFEKPKKNAGTQNFVSIVYPYDGQKAPEISIRENKGNDFEKGKLNLTLTINGKQQLVLVP

What was measured:
[1] = Isoelectric focusing on agarose gel; assay type: physicochemical; conditions: agarose IEF
Protocol: IEF gel electrophoresis was run on pre-cast agarose gels (85×100 mm). Two electrode wicks were wetted with 1M phosphoric acid (anolyte) and 1M sodium hydroxide (catholyte). Electrophoresis was at 5 watts for 5 min, then at 10 watts for 1 h until the voltage was constant at 1200 V. The gel was immediately fixed in 15% aqueous trichloroacetic acid, blotted and rinsed with water, dried overnight, stained by using Coomassie G-250, and destained.

[2] = Stability toward storage, freeze thawing and lyophilization; assay type: physicochemical
Protocol: […] […] These lyase solutions were then divided into 3 equal aliquots, and one of each was subjected to either freeze thawing, lyophilization, or retained as a control in an ice bath. The activities of heparin lyases I-III were determined in the presence and absence of excipients after: 1) brief storage at 4° C.; 2) freezing at −70° C. and thawing; and 3) −70° C. freezing, lyophilization, and reconstituting with an equal volume of cold water.

[3] = Temperature stability of lyase activity; assay type: physicochemical; conditions: for time in which 80% of activity was lost: protein 650 ng/ml
Protocol: Lyase assay stock solutions were prepared in the appropriate buffer and placed in water baths at the following temperatures: heparin lyase I at 30° C., heparin lyase II at 35° C., and heparin lyase III at both 35° and 40° C. […]

[4] = Activity remaining after incubation in buffers for 24 h at 37° C.; assay type: physicochemical
Protocol: The buffer giving optimum activity for each heparin lyase was selected by testing buffers with buffering capacity near the pH optima calculated in the previous experiments. These buffers were: Tris-HCl, sodium phosphate, HEPES, MOPS, TES, and BTP-CHl. Each buffer was prepared at 50 mM, and its pH was adjusted with hydrochloric acid or sodium hydroxide to 6.9 for heparin lyase II acting on heparin, 7.15 for heparin lyase I, 7.3 for heparin lyase II acting on heparan sulfate, and 7.6 for heparin lyase III. The heparin lyase assay solutions were made by diluting enzyme in 50 mM sodium phosphate buffer adjusted to the appropriate pH as previously described. Heparin lyase activity was determined in each buffer. Activity was assayed both immediately after addition to each buffer and following incubation for 24 h at 37° C.

[5] = Heparin lyase activity assay (change of absorbance at 232 nm), heparan sulfate as substrate; assay type: biochemical; conditions: for Unit/mg (specific activity): final GPC-HPLC purification step, acting on heparan sulfate; for average number of sites acted at in the heparan sulfate polymer: final level of depolymerization, 24 h; for initial activity in six buffers (Tris-HCl, sodium phosphate, HEPES, MOPS, TES, BTP-HCl): 50 mM buffer at optimum pH; for temperature for maximum activity: 50 mM sodium phosphate at optimum pH, 15-55° C.; for optimum temperature (summary): activity greater at higher temperatures but stability reduced; for Vmax: optimized conditions; for pH optimum for activity: on heparan sulfate; for specific activity: purified lyase, toward heparan sulfate
Protocol: The spectrophotometer was adjusted to the optimum temperature of the particular lyase being assayed. […] A measured quantity of lyase was added, bringing the final volume to 400 μl and the cuvette was gently mixed. The microcuvette was then immediately returned to the spectrophotometer and the change of absorbance at 232 nm was measured at 10 seconds intervals over 3 min. […] The specific activity was then calculated by dividing the micromoles of product produced per minute by the milligrams of protein in the cuvette. […] G., and Linhardt, R. J. (1989) Carbohydr. Res. 190, 219-233. Protein concentration was measured by the Bradford assay, Bradford, M. M. (1976) Anal. Biochem. 72, 248-254, based on a bovine serum albumin standard curve. […] The activities of each lyase (I acting on heparin, II acting on both heparin and heparan sulfate, and III acting on heparan sulfate) were then determined at different pH values. The buffer giving optimum activity for each heparin lyase was selected by testing buffers with buffering capacity near the pH optima calculated in the previous experiments. These buffers were: Tris-HCl, sodium phosphate, HEPES, MOPS, TES, and BTP-CHl. […] The heparin lyase assay solutions were made by diluting enzyme in 50 mM sodium phosphate buffer adjusted to the appropriate pH as previously described. Heparin lyase activity was determined in each buffer. Activity was assayed both immediately after addition to each buffer and following incubation for 24 h at 37° C. The salt concentration for optimum activity was investigated. Sodium chloride, potassium chloride, and sodium and potassium acetate were used to differentiate between ionic strength and specific ion affects. […] The temperature was adjusted in a temperature-regulated spectrophotometer and equilibrated for 10 min before the assay was started. Michaelis-Menten constants were determined using the optimized conditions. The final absorbance value for total depolymerization was divided by 20 to find a value that represented 5% reaction completion. The purified lyase preparations were diluted so that 5% of total depolymerization would be reached only at the end of a 3-min assay. The reaction velocities at specific molar concentrations for each lyase and their substrates were used for kinetic analysis using EZ-FIT hyperbolic curve-fitting program of […]. (1988) Anal. Biochem. 174, 437-447). Substrate solutions were prepared from 50 mg/ml heparin and 40 mg/ml for heparan sulfate stock solutions. […] The amount of purified lyase used was sufficient for complete depolymerization of heparin or heparan sulfate substrates within 30 min. The initial rate of depolymerization of each polysaccharide was measured, the reaction was then continued for 24 h, and the final level of polysaccharide depolymerization was assessed by measuring the final absorbance at 232 nm and expressed as percent activity.

[6] = heparan sulfate, II: 35° C., pH 6.9, III: 35° C., pH 7.6, value ± standard error, read-out: Km(app)
[7] = heparan sulfate, value ± standard error
[8] = with heparan sulfate, read-out: Km (Michelis-Menton constant, summary)

Row | Molecule | pI (isoelectric point) [1] | Unit/mg (specific activity) [5] | average number of sites acted at in the heparan sulfate polymer [5] | initial activity in six buffers (Tris-HCl, sodium phosphate, HEPES, MOPS, TES, BTP-HCl) ([5]; heparan sulfate) | temperature for maximum activity ([5]; heparan sulfate) | Km [5, 6] | optimum temperature (summary) ([5]; heparan sulfate) | Vmax [5, 7] | pH optimum for activity [5] | specific activity [5] | Km (Michelis-Menton constant, summary) ([5]; with heparan sulfate) | V(max) (summary) ([5]; with heparan sulfate) | Km [5, 8] | also measured
1 | B1 | around 8.9 | 36.5 Unit/mg | 25 sites | marked reduction of activity in MOPS, TES, and HEPES | 40 °C | 11.2 ± 2.18 µM | 35 °C | 28.6 ± 1.26 μmol/min mg protein | 6.9 | 36.5 units/mg | 0.869 mg/mL | 46.95 | 43.4 µM | pI (isoelectric point) ([1]; listed as heparin lyase II): 8.9-9.1; activity retained ([2]; under all storage conditions): greater than 75%; activity retained ([3]; 25 h at 35° C., protein 1-2 μg/ml, on both heparin and heparan sulfate): 70%; retention of activity after incubation ([4]; MOPS, TES, and HEPES, toward both heparin and heparan sulfate): 30-70%; initial rate on heparan sulfate relative to heparin [5]: 1.7 times
2 | B2 | ~9.2 | 63.5 Unit/mg | 20 sites | only slight differences in activity | 45 °C | 29.4 ± 3.16 µM | 35 °C | 141 ± 3.88 μmol/min mg protein | 7.6 | 63.5 units/mg | 0.780 mg/mL | 277.01 | 110 µM | pI (isoelectric point) ([1]; listed as heparin lyase III): 9.9-10.1; activity retained ([2]; absence of excipient, stored at 4° C.): retains most of its activity; retention of activity ([2]; addition of 5% lactose): destabilizes; activity lost ([2]; on freeze-thawing or freeze-drying): 70-80%; increase of recovered activity ([2]; presence of BSA): 20-25%; time in which 80% of activity was lost ([3]; 35° C.): 3.5 h; time in which 80% of activity was lost ([3]; 40° C.): 0.5 h; retention of activity after incubation ([4]; MOPS and HEPES): 15-30%
